The values below are quoted from earlier work in paper PMC12030383, “Pharmacokinetics, Pharmacodynamics, and Bioequivalence of Test Insulin Glargine Versus Reference Preparation (Lantus®) in Healthy Male Volunteers—By Euglycemic Clamp Technique” (Pharmaceutics, 2025).

How the values of the data set were obtained:
After subcutaneous injection, the acidic solution in insulin is neutralized so that the insulin analog forms a precipitated microscopic deposit at the injection site, thus allowing for a slow and continuous release of insulin glargine from the injection site into the bloodstream, resulting in a smooth and predictable blood concentration without peaks for up to 24 h. Therefore, insulin glargine can be administered ...

For Insulin glargine, the “solubility in acidic solutions” value (acidic solutions) is “completely soluble”. For the same substance, for the setting “neutral solutions”, the “solubility in neutral solutions” value was “low solubility”.
